# Reference: the domain aggregation screens of Martell et al. (2025)
# Experiment: soluble fraction after stress (log2 fold change); higher = more stays soluble; pooled small domains, quantitative proteomics
# Conditions: stress: 50 degC
# Method in brief: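 Quantitative proteomics served as the high-throughput read-out for pooled custom libraries of small protein domains. Each was stressed at 50°C. Aggregation propensity is expressed as the base-two log fold change in soluble protein after stress. A higher value means a larger share of the protein remains in solution.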
row,Sequence,soluble fraction (log2)
1,HMEKEFLFNGGKVVMNYEADRIQIMHDTKPGQDVITLMKKNGFKWSPFNKAWQRQITANAIYTTKHLINQ,-1.5
2,HMTPLFNQGEVLKGFVLQTGTNNRVLLQIGTAKVLADAQTPLKAGEQLTLRVEATGPRTVLQILG,0.553
3,HMDPTLFRLNILEGLGLEKKNLTSEEQEQLRFLYEHFSMKEILMTIDYIKKLNLEKSIVNLYRLMQHP,-0.0621
4,HMDHTYKHIELTGSSEKGIEEAVQNALAKASESVQNMRWLEVTDTRGHIEDGRVAHWQVTVKVGFTL,-0.0248
5,HMAAGLTPKQKAFADNYIKNGGNAAEAARAAGYSLKNVGANAGKLLKNPKIAAYIAEKQAELDRRNGT,0.155
6,HMKTGIIYGVNGPVIYLKGDTGFKISEMVYVGPEKLVGEVIGLKKHMTTVQVFEETTGLKPGETVIGTGDA,-0.486
7,HMVEKNALSEEIEGYVNKYGKDRSSLMPVLQAIQRKHSYINDFAQQEVARLLDIHPVEVFSVISFYSFLH,-1.79
8,HMEVTYQETLRVLYNAIDKLPPQTKEIILIGLDGKDNNEIAATLNISVNTVKTLKKNAYKTLRELLVD,-0.157
9,HMALQLPFSFAKRHKVLVESAHEPVKVYHTPSTDFAVFAEVRRFLDQTFVLEEIAENRFEELLTSSFQRD,-1.27
10,HMPSARELLATNIVRLRKEKGWSQEDLALEAGLHRTFVAHVERHARNISLDNIERLANALQVNVHILLL,-3.79
11,HMTFAEADAQYEVIKQQYLAGALDEEQFDEQLHRLMVLDDGGLWWAKSRENGSWHYYDPDREDWIAATP,-0.355
12,HMTISDTAYQAFLEQLGVGMVVEHKRFGEGVITGMPKGKIRITFEEGTKSFQARALAESGMLK,-0.59
13,HMIPLKTEAIPVSYGDGAAIIRSLAVAFPSRTFHWDAQTRRIIGQALDEEWQVIRSLVWQLDIP,-0.584
14,HMFRDFSETLLRKLQAAGGFLPFTDKTDAEAIAEHFQVSKKTFKRAVGTLYKQRRILIDDEGITLIG,-0.148
15,HMGGSVYTVQKGDTLWSIAKEQLGSPLRYAEIYDLNKDVIEEAARGRGKKDSSNGHWLVVGTSLQIPEAT,0.42
16,HMSAPRRGETTAASLNLRAGPATDADILAQLPERTPLRVLQEDGEWLRVETHGNEGFVHRQFVAIPGDEP,0.218
17,HMGKIFSELTPREIEVVRLIADGLSNQQIAEELFLSNGTVRNHISTILEKTGLEHRTQIAVMWLR,-0.146
18,HMGIVYGVIKENWDQDHPGMVKVEILQGESGKNVSDWIPVMSPYAGKEFGAYALPEIGTQAVVAFE,-0.0355
19,HMDNLATRILKELNNNDGFLPLSDKSQPEAIYQAFGISKKSYKTAIGTLYKKRLITISENGIQLTD,-0.688
20,HMEDVPYMIKLPSHHYLTKMVDGSTGWSLVQNSNTVVGSSKEELLKQYPEYEDFIVQEPLNV,0.101
21,HMGEDLTIDQLAAEVDMTVRNIRAHQARGLLPPPTIKGRIGYYGPLHRRRLQQIRAMQEEGLNLAAIAKVV,-0.609
22,HMAELVISVKADGTIHYQDRQLTKEALAAVLETRPEALLNLYVDEKAPFEAFVGVVDIARLKRGGHFVIST,-0.632
23,HMATHGRRAVIELREKIVSGELPGGTRLFEVSLAETLDISRTPVREALSRLAEEGLLDRLPNGGFVVRR,-0.503
24,HMIIIPKKDYDVSQLDNLVSWLKDRGLEVHISRGENLTVIGLIGDTSKIDIDLIRSLDVVEEVKRIQ,-0.326
25,HMSQYELEDVEKQRLKFKNGDEKALWLLSDIYKDNSQSYEVRLAALRALSESRHPLIIFDIQSSVK,-0.208
26,HMSYPTAVTQTTLNVRTGPGTQYERLGAFVENTEVIVLTRQPEWIQVRGMSGDKAIIGWVSARYLQMNP,-0.457
27,HMKLRLGVNIDPVATVRNARGSAYPDPVRAAIIAQEAGADGITAHLREDRRHIVDQDITSIIKAIDIPLNF,-0.0391
28,HMYMKLSVKDAALFLSVSPETVYRWVKQEEIPYHTVNDQLRFNRAELLEWATARSLEVSPDLFVP,-3.04

row,Sequence,soluble fraction (log2)
1,HMVEGVSLVEIYVDENSKYNGKLLSEIPKKENTLVIMIQRGEQVIIPHGNIRLESGDMLVVSKTEI,-0.649
2,HMKELTARQIEILDFITNYEWRHGYWPSIRNIQVQFSYKSTNAVMGHLRALERKGAIERIPGQARTFRIH,-2.97
3,HMKADTSPEAQKKIIAAFEPYSVNKDQIEKLIQRRIDSITPAQVIRLRKILASLKDGMSSPEDWFE,0.0361
4,HMNSVTLEHIVYDFRVFNMLKGSGINDIDELIKAAEDGRLFKIIGSNLTYKRIKKSAAEFGVILPDKPG,-0.351
5,HMDSSLVWVDYLLGSKLTKLNSSNELTGPGASAKTIGAFLGENKQSFDLYIESVHNARDTYSDILTHGT,-0.0043
6,HMKGVSFEEIERAVRTAQNPEADETAQQHAGMVFSRMEGNELFDKLVQSSSTIGKKITGLMDYYL,-0.0889
7,HMNKIDVVEVDMSKPYEDMTVTELQNVILGKLASNGPVTDQMKKDVAENIYHDSLVNWAKSF,0.505
8,HMNEYHRNISDEEFVRDIKETAIKLKKETLTGVEYSQNGKYHASTIIHRFGSWKKALELAELNTK,-0.056
9,HMYKNAFITYDNNLYYLGSDSKMAIGWQSIGGNTYYFRNWGGMITGKQVIDGKTYVFDEDGKLVQSPD,-1.12
10,HMNNTIKFSVDIKNSGKRLDIFLSENVTQYTRSYLKRLIENSHVKLNNKILNSPSTKVKFQDQIIINNIE,-1.91
11,HMKMSVEEVNLSPRTTNALINNDIKTMKDLVALTDTELRDLKGFGSKAYEEVKEKLSELGLSTQ,0.227
12,HMKQHPTIDLQIGQKLHYKEDVFEVTRFAKDKNGQDMVILKDPSIGSGIEIPWYRSKLEEIIESGQYKIT,0.413
13,HMNTLRFPEGTPEKDRMSIILASYNSGIGHVNDARRLARLNGEDPNSWEVVARYLQLKAQPEYYESEAVK,-0.0728
14,HMKLSDDIIVDTIKEIIEENKNMIEQRKMGAMGPLMGKAMAKFKGKADGQTVSNVIKDEILNIIN,0.154
15,HMVIIPNILNKYKGLAFRQLEQVGLKIGDTIYEPNIQRDAVLRMQINGRSVQPGDQVMRFSVVDLVIG,-3.21
16,HMAIEGIFEKYQRRSDQLIPILQDVQKEFGYIAPESVRHISRYLRISENQIFGVSSFYAQFRFT,-0.292
17,HMQTPPGRYRHYKGGLYEVIATARHSETLEPMTVYRALYGEQGLWVRPAAMFAEDITLEGVRQPRFARI,-1.91
18,HMDVFPDESLKAWLIEMGFKLDQKKMNVFTVLRRMLLQTAPSVKEFRILEIVLQQSRRKLKELNDLKKS,-0.0335
19,HMGIVAQLPTIRVNGKTLYYYDAQSGDNIYSIAEKLGVTVEDIRANNPGVADGVKPRMRLFFPTSLAK,0.165
20,HMNSHQNELDNALTEAHTASRRLLEGTDEYLDLSSQPAYIRRLQHLLAQKYNLGSLSSGVEPNRHIRLLQ,-0.143
21,HMFYPIAHTLTKLNIRSGPGEQYQKLATFENNHDLVVLTQQNEWVQVRGKSDEQVIIGWVHSSFLSPT,-1.09
22,HMSLGTDVVPDFTGKGIKEAKTEFAAYSEGELYIIGEGEKVKEQFPLPGEKVNKNSDLILYV,0.101
23,HMYLYHDLSDEAKAMGDEYVSVEHLVLALIRYPNNAVKELFREFGITRERFLQVLSTIRGNQRVTSDNPEA,0.0309
24,HMETVPMIDLRGMTQEQAEKAIVGLGLTVGTVDHSSSDMPAGQVWFQSVEPKDEVAPGTKVNIIISTGS,-0.000277
25,HMKEGTIPPVVNRTLSDAEFVLKSYGYELGRVSEQHSDMPKDIVIKQSPEAGTVADPGTRVDVVVSIGKA,0.404
26,HMTSHSFVITEEVGQRLDRFISDQLDTVSRTMIQKHIRSGAVVVNGKQVKSNYLLVLNDRINIALK,-2.64
27,HMEEQGLPLVIISDGKVLAQNLTLRSLDRAWLQDQLTQHGHSKPEQVFLLTVDERGAVYYVPKE,-0.37
